± gives the uncertainty stated by the source.
B1: Storkhead-box protein 2, residues 64 to 141; numbered along this chain, Q9P2F5 (parent)
chain: SPISQSQFIPLGEILCLAISAMNSARKPVTQEALMEHLTTCFPGVPTPSQEILRHTLNTLVRERKIYPTPDGYFIVTP

Variants of: B1
Test: abundance fitness (aPCA) (normalised: wild type 0, dead -1); higher = more abundant; growth selection in yeast, the domain comes from the species named
Conditions: Homo sapiens

Variant | abundance fitness
Q7G | 0.063 ± 0.033
Q7D | -0.032 ± 0.17
S24N | 0.063 ± 0.12
S24Y | -0.093 ± 0.083
S24L | -0.078 ± 0.038
S24P | -0.34 ± 0.038
S24I | 0.018 ± 0.11
F42P | -0.057 ± 0.1
A25Q | -0.021 ± 0.073
A25K | -0.007 ± 0.079
A25C | -0.05 ± 0.074
A25S | -0.055 ± 0.038
A25W | -0.189 ± 0.053
A25I | -0.053 ± 0.08
R62K | -0.109 ± 0.18
R62I | 0.006 ± 0.07
R62H | -0.051 ± 0.14
R62M | 0.045 ± 0.095
R62C | -0.047 ± 0.066
I3F | -0.255 ± 0.084
I3R | -0.022 ± 0.035

Variant | abundance fitness
I3G | -0.046 ± 0.028
I3H | -0.017 ± 0.062
I66M | -0.249 ± 0.077
M22E | -0.719 ± 0.25
M22H | -0.226 ± 0.078
M22K | -0.403 ± 0.064
M22P | -0.739 ± 0.06
M22N | -0.334 ± 0.12
M22T | -0.616 ± 0.067
S4V | -0.056 ± 0.042
S4N | -0.038 ± 0.1
S4M | 0.002 ± 0.066
S4D | 0.104 ± 0.093
S4L | -0.026 ± 0.041
T69H | -0.071 ± 0.075
T69Q | -0.036 ± 0.065
T69K | -0.249 ± 0.1
T69M | -0.148 ± 0.075
T69L | -0.195 ± 0.042
T69W | -0.362 ± 0.065
L53E | -0.929 ± 0.15

Variant | abundance fitness
L53T | 0.026 ± 0.066
F8Y | -0.326 ± 0.14
F8I | -0.017 ± 0.075
F8S | 0.017 ± 0.058
R54L | -0.011 ± 0.039
R54Q | 0.066 ± 0.082
R54P | -0.401 ± 0.11
R54D | -0.365 ± 0.2
R54K | -0.027 ± 0.3
R54E | 0.013 ± 0.15
R54V | -0.012 ± 0.1
R54G | 0.057 ± 0.1
R54H | -0.367 ± 0.14
R54I | -0.037 ± 0.19
F74I | -0.001 ± 0.067
F74A | 0.095 ± 0.056
F74W | -0.002 ± 0.067
C41A | 0.019 ± 0.051
C41D | -0.055 ± 0.064
C41W | -0.088 ± 0.056
C41Y | -0.062 ± 0.09

Variant | abundance fitness
C41M | 0.032 ± 0.091
C41K | -0.11 ± 0.082
S1R | -0.344 ± 0.1
S1L | -0.207 ± 0.065
S1W | -0.83 ± 0.12
S1C | -0.178 ± 0.067
S1F | -0.092 ± 0.084
P10K | 0.016 ± 0.11
A18E | -0.102 ± 0.081
A18K | -0.282 ± 0.11
A18F | -0.446 ± 0.098
A18N | -0.376 ± 0.21
T77W | -0.111 ± 0.049
T77C | 0.04 ± 0.072
T77G | -0.057 ± 0.048
T77F | -0.073 ± 0.076
T77L | -0.072 ± 0.066
T40A | -0.158 ± 0.057
K65V | 0 ± 0.048
K65H | 0.013 ± 0.084
K65Y | -0.154 ± 0.14
